This is an account of results in article PMC3988563.

Experiment [1] concerns the target Ribosome termination complex (70S ribosomes, fMet-STOP mRNA and fMet-tRNA^fMet) (E. coli). The experiment can be described thus: other fluorescence titration; 1 nM fluorescein-labeled A220C RF1 titrated with ribosome complexes (0-52 nM) in 1X 219-HEPES buffer; excitation 491 nm, emission 515 nm; quadratic fit.
Experiment [2] shares this target. In words: stopped-flow fluorescence; as a12, with RF3 preincubated with 1 mM GTP in the chase mixture.
For experiment [3] the target is unchanged. In words: stopped-flow fluorescence; Fl-RF1 preincubated with ribosome complex, chased with excess unlabeled RF1, no RF3; Buffer 219 Tris pH 7.6, 26 C; double exponential fit, faster phase.
For experiment [4] the target is unchanged. The experiment can be described thus: stopped-flow fluorescence; with RF3 preincubated with 1 mM GDP in the chase mixture.
In experiment [5] the target is Ribosome termination complex formed with GAQ-RF1 (E. coli) (UniProt P0A7I0). The experiment can be described thus: quick spin gel-filtration assay (Sephadex G-100) with SYPRO Ruby staining; as a8, RF3 preincubated with 2 mM GDP.
Chain of Ribosome termination complex formed with GAQ-RF1 (E. coli) (P0A7I0 whole entry, looked up, one chain of several): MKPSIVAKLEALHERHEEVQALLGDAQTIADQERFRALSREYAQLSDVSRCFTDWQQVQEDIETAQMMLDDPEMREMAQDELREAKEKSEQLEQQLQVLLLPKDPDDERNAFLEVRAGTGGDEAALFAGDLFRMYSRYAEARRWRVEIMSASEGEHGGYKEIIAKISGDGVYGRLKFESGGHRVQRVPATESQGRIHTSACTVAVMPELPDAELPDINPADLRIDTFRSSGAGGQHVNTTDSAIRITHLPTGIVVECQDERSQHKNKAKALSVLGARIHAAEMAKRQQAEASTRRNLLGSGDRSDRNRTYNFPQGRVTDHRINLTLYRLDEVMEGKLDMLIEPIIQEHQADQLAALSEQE
Experiment [6] deals with Ribosome termination complex formed with wild-type RF1 (E. coli) (UniProt P0A7I0). Described as above.
Chain of Ribosome termination complex formed with wild-type RF1 (E. coli) (P0A7I0 whole entry, looked up, one chain of several): as above
The target is the same in experiment [7]. In words: quick spin gel-filtration assay (Sephadex G-100) with SYPRO Ruby staining; as a8, no nucleotide added to RF3 (copurified with GDP 1:1; 'apo' assay, no free GDP or GTP).
Experiment [8] concerns the target Ribosome termination complex formed with GAQ-RF1 (E. coli) (UniProt P0A7I0). In words: quick spin gel-filtration assay (Sephadex G-100) with SYPRO Ruby staining; RF3 preincubated with 2 mM GDPNP, mixed with release complexes (10 nM to 2 uM, threefold excess RF1), 10 min 37 C, Buffer 219 HEPES pH 7.6; quadratic fit; KD with wild-type RF1 complexes is called apparent (K_D,app).

Experiment [9] has as its target Ribosome termination complex formed with wild-type RF1 (E. coli) (UniProt P0A7I0). The experiment is described as above.

One may read the koff as a measure of how fast the partners let go of each other.

Chain of His-tagged RF3 (class 2 release factor) (P0A7I4 whole entry): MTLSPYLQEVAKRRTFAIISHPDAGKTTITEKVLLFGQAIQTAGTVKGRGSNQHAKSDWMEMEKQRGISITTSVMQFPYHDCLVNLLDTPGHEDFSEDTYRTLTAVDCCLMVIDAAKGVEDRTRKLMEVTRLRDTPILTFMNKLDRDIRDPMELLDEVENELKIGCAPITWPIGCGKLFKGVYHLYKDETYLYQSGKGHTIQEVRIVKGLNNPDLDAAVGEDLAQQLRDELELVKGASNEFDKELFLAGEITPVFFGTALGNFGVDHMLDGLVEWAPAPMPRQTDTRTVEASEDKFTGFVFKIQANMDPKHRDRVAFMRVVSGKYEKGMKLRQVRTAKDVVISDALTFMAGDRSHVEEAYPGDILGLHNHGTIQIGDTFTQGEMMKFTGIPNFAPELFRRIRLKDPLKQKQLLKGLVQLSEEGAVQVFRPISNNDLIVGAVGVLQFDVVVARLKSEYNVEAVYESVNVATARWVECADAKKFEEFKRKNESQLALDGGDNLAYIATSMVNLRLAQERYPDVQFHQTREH

For the substance “Fluorescein-labeled A220C RF1 (from UniProt P0A7I0 1-360) (natural protein)”, the Kd in [1] is 2.5 nM.

As to “Fluorescein-labeled GAQ-RF1 (single-cysteine L82C or A220C) (from UniProt P0A7I0 1-360) (natural protein)”, in experiment [2], the koff in the presence of RF3:GTP worked out at 0.14 s⁻¹. In [3], this substance had a koff of 0.09 s⁻¹.

Turning to “Fluorescein-labeled single-cysteine RF1 (either L82C or A220C) (from UniProt P0A7I0 1-360) (natural protein)”, the koff in the presence of RF3:GDP in [4] stood at 0.3 s⁻¹. Moreover, in experiment [2], the koff in the presence of RF3:GTP was determined as 2.9 s⁻¹. In [3], this substance showed an off-rate (koff) of 0.005 s⁻¹.

Turning to “His-tagged RF3 (class 2 release factor) (from UniProt P0A7I4 1-529) (natural protein)”, the Kd came out at 1000 nM in [5]; 430 nM in experiment [6]; 36 nM in experiment [7]; 10 nM in [8]; 50 nM in experiment [9].
